Experimental data published in the RNAGym collection of RNA variant scans (doi:10.1073/pnas.2313332121).
Variants at the floor of the assay were thinned out.

B1: TPR 5TU (parent)
chain: GGAUCUUCUCGAUCUAACAAAAAAGACAAAUCUGCCACAAAGCUUGAGAGCAUCUUCGGAUGCAGAGGCGGCAGCCUUCGGUGGCGCGAUAGCGCCAACGUUCUCAACUAUGACACGCAAAACGCGUGCUCCGUUGAAUGGAGUUUAUCAUG

Variants of: B1
Assay: polymerase ribozyme fitness, log enrichment relative to wild type (log ratio); higher = more active; in vitro selection for triplet polymerase activity
How it was run: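 Fitness is a logarithmic measure of how a genotype enriched relative to the wild type, with replicate averages weighted by inverse variance. The logarithm uses base 2, and enrichment came from Illumina sequencing of input and output libraries. Those libraries were PCR-built, transcribed mutants of each subunit of a heterodimeric triplet polymerase ribozyme, passed through one triplicate in vitro selection round that included frozen incubation at −7 °C, gel excision of extended constructs and streptavidin-bead capture. Genotypes were kept only if they had ≥10 input reads and ≥1 read per output.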

Point of comparison: A49C G58A, “polymerase ribozyme fitness (log ratio)” value -4.08. Against it:
- A47U U82G G84A A97G U102G G136C — lower, ≤ -4.2
- A47G A49G G71A C87U A97U A106G A107C U111G U134C — lower, ≤ -4.2
- A49U C93A C103U A119U — lower, ≤ -4.2
- G46U U55A G84U G126C — higher, -1.83
- A49G C93A G100A — lower, ≤ -4.2
- G48A C75G U78C — lower, ≤ -4.2
- A49U A52C G59A A73U C76G G84U — lower, ≤ -4.2
- A47C G48U C75U U77A G83C C96A C99A — lower, ≤ -4.2
- A47G G59C G62U G83A C87U U101G A138U — lower, ≤ -4.2
- G50A A52G — higher, -1.15
- A47U U53A G133C — higher, -2.66
- G48C G50A G81U C95A U146G — higher, -3.35
- A49C A52G U78C C93G U146C — lower, ≤ -4.2
- A47U C103G A115G G140C — lower, ≤ -4.2
- A49C G50A G59U C69G C93U C99U U111G A150U — lower, ≤ -4.2
- G48C A89U A106U A107C A120G U139G — lower, ≤ -4.2
- G48C G68A C79U C99A — lower, ≤ -4.2
- A47C G58C A97G C99G C129A G133U — lower, ≤ -4.2
- G48U C93U C95A A97G A98U G117C — higher, -3.43
- A47C G50U G59A G70A C79U U82G C95U G124A U144G — lower, ≤ -4.2
- G48C A52C C85G G92C A119U G126A A138U — lower, ≤ -4.2
- G50A A66G C85A A106G G140C — lower, ≤ -4.2
- G50A C54A C87A G128A — lower, ≤ -4.2
- G46U C72U C87U — higher, -1.01
- A47G G94C — higher, -0.418
- G46C G59A A66G G83A A120U C123G — lower, ≤ -4.2
- A47G A49C U104G — lower, ≤ -4.2
- G48C G59C U82G — higher, 0.0275
- G48U C93A — higher, -2.5
- A47C C96U — higher, 0.15
- G50A A122U A137G — higher, -2.6
- G48C C75U G81A G84U A97U G141U A150U — lower, ≤ -4.2
- G50A A150G — higher, -3.11
- G48C C51U C54U C57U U90C A138G U144A — lower, ≤ -4.2
- A47C C85U G117U — higher, 0.38
- G46U U53A U90C — lower, ≤ -4.2
- A49G C85A — higher, -2.52
- A49G C85U — higher, -0.982
- G48C A89C — higher, -0.506
- A49U U56A C75U C108A U111G U146G — lower, ≤ -4.2
- A49C G50C G71A U90C C93G G117U C123G — lower, ≤ -4.2
- G46U G68C U78A C93G C99U G100C C118A A119U U144G G152A — lower, ≤ -4.2
- A47C C108U U146C — higher, -3.2
- A47U A64G C93A — lower, ≤ -4.2
- A47C U56G C85G C118U A121U U144G — higher, -1.81
- G50A A52U C76G A150G — lower, ≤ -4.2
- A49G C51G U53G C79U C118U — lower, ≤ -4.2
- A47U G59A C96G — higher, -1.05
- A47C G58U C99A — higher, -2.46
- A49C G71C — lower, ≤ -4.2
- A49G G59C U77G U139A — lower, ≤ -4.2
- A47U G83C A98U — higher, -0.618
- A47G U53A C75G U90C — lower, ≤ -4.2
- A49C G88U A106U — lower, ≤ -4.2
- A49C G50C C85A C103U A106G G117U A122U C131U U139G — lower, ≤ -4.2
- A47U G50A C129U — higher, -3.09
- A47U G50A C87G C105G C114U C129U — lower, ≤ -4.2
- A47U G83A U101C G117U — higher, -0.198
- A47C G59A C85G — higher, -2.62
- A49C C93U G133A — lower, ≤ -4.2
- G48A A52G — higher, 0.139
- A49G G71A G126A — lower, ≤ -4.2
- G48A U55G C85G C87G C149G — lower, ≤ -4.2
- A47C A73U G83C C118A — lower, ≤ -4.2
- A47G G58C C93A U101G — within 0.2 log units, -3.96
- A47C U56A U144C U151G — lower, ≤ -4.2
- A49C G70U A97U A107G G128U G136A U139A — lower, ≤ -4.2
- A49C C54U G84A C103U C116G U130G — lower, ≤ -4.2
- A47C A110U — lower, ≤ -4.2
- A47C C69G G83A A119G U146C — higher, -2.18
- G48A G81U G92U C118A G152C — lower, ≤ -4.2
- A47G U82A A89C C93U — higher, -1.39
- A49U A52U A89G A98G — within 0.2 log units, -3.98
- G48A U53A C85U C118U — higher, -2.36
- G46C G83C G88C A97G — lower, ≤ -4.2
- A47G G81C — higher, 0.162
- A49G U104C C149G — lower, ≤ -4.2
- A47U G59A G124U — higher, -0.07
- A49U C51U C79A A120G C123A — lower, ≤ -4.2
- A49G U135C U145C — higher, -2.6
- A47C C79G — lower, ≤ -4.2
- A47G G48A G70A U77G C95U C108G A122U — lower, ≤ -4.2
